Assay results as given in patent publication US20160326230A1 (SHANGHAI HENGRUI PHARMACEUTICAL, published 2016).
No end group written: not given here.

Target: the receptor on THP-1 cells
Assay: cell-based or functional assay

EC50 (ng/ml) of cAMP induced in THP-1 cells (cAMP ELISA): 3.03 ng/mL
B1: recombinant human relaxin 800828 (WT, wild-type) (ligand)
chain 1: DSWMEEVIKLCGRELVRAQIAICGMSTWS
chain 2: QLYSALANKCCHVGCTKRSLARFC
modifications: not fully specified; ends and bridges not checked
